Where a chain is given by its changes, count along the chain named.
B1: oligo-B-12-mt (dsDNA)
DNA 1: GACCGCAGAACCAAGCCGCCTATTGCCAGTGAAT
DNA 2: ATTCACTGGCAATAGGCGGCTTGGTTCTGCGGTC
B2: oligo-E-wt (site 11) (dsDNA)
DNA 1: CTTCTTCGGGCACCTAATGACGCGCGTTCAACAT
DNA 2: ATGTTGAACGCGCGTCATTAGGTGCCCGAAGAAG
B3: oligo-A-wt (site 1) (dsDNA)
DNA 1: TCTCAGCCTCGATAATTAACACACAAGCGCGGGG
DNA 2: CCCCGCGCTTGTGTGTTAATTATCGAGGCTGAGA
B4: oligo-D-1-mt (D-9mut-10wt) (dsDNA)
DNA 1: TATAAAAGGCGGCAAATACTAATCTATTCTCGAT
DNA 2: ATCGAGAATAGATTAGTATTTGCCGCCTTTTATA
B5: oligo-D-wt (sites 9, 10) (dsDNA)
DNA 1: B4 DNA 1 with G9C, G11A, G12T, C13T
DNA 2: B4 DNA 2 with G22A, C23A, C24T, C26G
B6: oligo-class-2-site (dsDNA)
DNA 1: TTCAGAGCGAATGATTAATGATCGGTCAAG
DNA 2: CTTGACCGATCATTAATCATTCGCTCTGAA
B7: oligo-D-1-mt-2-H (D-9mut-10H) (dsDNA)
DNA 1: TATAAAAGGCGGCATTGATTAATTAATTCTCGAT
DNA 2: ATCGAGAATTAATTAATCAATGCCGCCTTTTATA
B8: oligo-E-11-H (dsDNA)
DNA 1: CTTCTTCGGATGATTAATGACGCGCGTTCAACAT
DNA 2: ATGTTGAACGCGCGTCATTAATCATCCGAAGAAG

Experiments:
[1] = biological target: T1, Dfd (Deformed);Exd (Extradenticle);Hth (Homothorax) (Drosophila melanogaster?;Drosophila …, UniProt P07548;P40427;O46339 1-586;1-376;1-487, ||); experiment: EMSA; binding abolished when all sites mutated; 20 mM HEPES pH 7.9, 1.4 mM MgCl2, 1 mM ZnSO4, 40 mM KCl, 0.1 mM EGTA, 5% glycerol, 10 mM DTT, 0.1% NP40, 200 ng poly(dI-dC), 3 ug BSA, 2 pmol Cy5 dsDNA in 30 ul, on ice 20 min; 1% agarose-TBE gel at 4 C; settings: protein: recombinant;recombinant;recombinant; tags: GST (pGEX-6P);His-myc;His-Flag; copies: 1;1;1; label: 5'-Cy5; blunt
[2] = biological target: T2, Dfd (Deformed);Exd (Extradenticle) (Drosophila melanogaster?;Drosophila …, UniProt P07548;P40427 1-586;1-376, |); experiment: EMSA; Hth presence not given; 20 mM HEPES pH 7.9, 1.4 mM MgCl2, 1 mM ZnSO4, 40 mM KCl, 0.1 mM EGTA, 5% glycerol, 10 mM DTT, 0.1% NP40, 200 ng poly(dI-dC), 3 ug BSA, 2 pmol Cy5 dsDNA in 30 ul, on ice 20 min; 1% agarose-TBE gel at 4 C; settings: protein: recombinant;recombinant; tags: GST (pGEX-6P);His-myc; copies: 1;1; label: 5'-Cy5; blunt
[3] = biological target: T1, Dfd (Deformed);Exd (Extradenticle);Hth …; experiment: EMSA; 20 mM HEPES pH 7.9, 1.4 mM MgCl2, 1 mM ZnSO4, 40 mM KCl, 0.1 mM EGTA, 5% glycerol, 10 mM DTT, 0.1% NP40, 200 ng poly(dI-dC), 3 ug BSA, 2 pmol Cy5 dsDNA in 30 ul, on ice 20 min; 1% agarose-TBE gel at 4 C; settings: protein: recombinant;recombinant;recombinant; tags: GST (pGEX-6P);His-myc;His-Flag; copies: 1;1;1; label: 5'-Cy5; blunt
[4] = biological target: T2, Dfd (Deformed);Exd (Extradenticle); experiment: EMSA; Hth presence not stated; review file prints 6.85 and 6.65; 20 mM HEPES pH 7.9, 1.4 mM MgCl2, 1 mM ZnSO4, 40 mM KCl, 0.1 mM EGTA, 5% glycerol, 10 mM DTT, 0.1% NP40, 200 ng poly(dI-dC), 3 ug BSA, 2 pmol Cy5 dsDNA in 30 ul, on ice 20 min; 1% agarose-TBE gel at 4 C; settings: protein: recombinant;recombinant; tags: GST (pGEX-6P);His-myc; copies: 1;1; label: 5'-Cy5; blunt

T2 sequence (P07548 whole entry, chain 1 of 2): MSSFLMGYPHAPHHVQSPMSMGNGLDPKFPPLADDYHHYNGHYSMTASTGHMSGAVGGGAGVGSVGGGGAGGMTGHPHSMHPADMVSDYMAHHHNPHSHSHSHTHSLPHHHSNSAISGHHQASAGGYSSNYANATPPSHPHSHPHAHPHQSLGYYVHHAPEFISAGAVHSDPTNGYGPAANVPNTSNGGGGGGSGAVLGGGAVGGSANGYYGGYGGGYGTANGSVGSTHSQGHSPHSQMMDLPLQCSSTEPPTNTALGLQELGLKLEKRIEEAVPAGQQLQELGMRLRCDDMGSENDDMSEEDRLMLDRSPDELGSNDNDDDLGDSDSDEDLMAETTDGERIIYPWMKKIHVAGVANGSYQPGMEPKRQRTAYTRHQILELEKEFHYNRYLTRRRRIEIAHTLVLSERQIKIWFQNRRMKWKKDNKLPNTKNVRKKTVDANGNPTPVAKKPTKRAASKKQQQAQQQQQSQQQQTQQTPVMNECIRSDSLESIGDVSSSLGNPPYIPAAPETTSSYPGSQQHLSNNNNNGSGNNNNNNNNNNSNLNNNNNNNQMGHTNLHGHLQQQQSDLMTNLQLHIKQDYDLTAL
T2 sequence (P40427 whole entry, chain 2 of 2): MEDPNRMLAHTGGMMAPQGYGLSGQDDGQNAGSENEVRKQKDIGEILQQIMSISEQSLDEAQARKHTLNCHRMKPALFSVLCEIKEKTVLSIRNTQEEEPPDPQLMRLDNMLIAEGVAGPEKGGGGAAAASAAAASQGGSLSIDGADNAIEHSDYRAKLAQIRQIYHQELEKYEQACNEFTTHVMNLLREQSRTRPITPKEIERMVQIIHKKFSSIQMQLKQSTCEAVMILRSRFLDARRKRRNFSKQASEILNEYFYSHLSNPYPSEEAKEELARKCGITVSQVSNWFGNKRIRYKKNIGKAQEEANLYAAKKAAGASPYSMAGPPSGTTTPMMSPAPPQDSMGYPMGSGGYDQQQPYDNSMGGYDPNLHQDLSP
T1 sequence (P07548 whole entry, chain 1 of 3): as the sequence (P07548 whole entry, chain 1 of 2) above
T1 sequence (P40427 whole entry, chain 2 of 3): as the sequence (P40427 whole entry, chain 2 of 2) above
T1 sequence (O46339 whole entry, chain 3 of 3): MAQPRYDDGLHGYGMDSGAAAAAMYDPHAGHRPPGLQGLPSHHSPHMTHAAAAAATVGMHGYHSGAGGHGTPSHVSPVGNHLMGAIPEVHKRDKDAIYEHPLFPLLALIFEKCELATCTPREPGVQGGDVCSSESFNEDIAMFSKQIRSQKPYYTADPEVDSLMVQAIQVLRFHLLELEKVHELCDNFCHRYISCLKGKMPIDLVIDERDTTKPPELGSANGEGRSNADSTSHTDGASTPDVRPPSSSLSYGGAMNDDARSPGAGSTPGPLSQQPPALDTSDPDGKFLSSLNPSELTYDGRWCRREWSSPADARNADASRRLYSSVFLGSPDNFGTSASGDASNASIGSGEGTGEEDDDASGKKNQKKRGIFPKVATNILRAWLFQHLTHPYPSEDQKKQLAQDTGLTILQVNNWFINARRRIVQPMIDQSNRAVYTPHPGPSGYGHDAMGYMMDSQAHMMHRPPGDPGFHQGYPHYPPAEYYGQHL

Row | Binder | Kd [2] | binding result [3] | other results
1 | B1 |  |  | binding result [1]: no binding
2 | B2 | 16.8 nM | binds | 
3 | B3 |  | binds | 
4 | B4 | 16.9 nM |  | 
5 | B5 |  | binds | 
6 | B6 | 9.12 nM |  | 
7 | B7 | 8.16 nM |  | 
8 | B8 |  |  | Kd [4]: 6.7 nM

Reference: publication PMC9418327, “Specificity of the Hox member Deformed is determined by transcription factor levels and binding site affinities”
